Molecular target: APOBEC3G, fluorescein-labelled (F-A3G) (human, UniProt Q9HC16 1-384, fluorescein (Fluorescein-EX Protein Labeling kit), sites not stated)
Assay: fluorescence polarisation

Chain of APOBEC3G, fluorescein-labelled (F-A3G) (Q9HC16 whole entry): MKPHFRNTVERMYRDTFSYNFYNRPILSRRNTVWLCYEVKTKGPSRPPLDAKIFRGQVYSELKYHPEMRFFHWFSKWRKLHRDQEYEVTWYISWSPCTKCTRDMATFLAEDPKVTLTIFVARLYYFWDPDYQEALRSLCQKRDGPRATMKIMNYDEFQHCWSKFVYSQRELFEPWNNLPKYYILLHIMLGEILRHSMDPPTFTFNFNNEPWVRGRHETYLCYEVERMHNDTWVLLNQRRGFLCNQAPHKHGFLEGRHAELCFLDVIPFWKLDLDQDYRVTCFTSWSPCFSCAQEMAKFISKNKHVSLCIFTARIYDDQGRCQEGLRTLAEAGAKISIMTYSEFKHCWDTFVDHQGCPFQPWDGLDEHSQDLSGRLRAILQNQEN

Row | Binder | Kd [nM]
1 | GST-Vif_(IIIB) (natural protein) not shown | 78
2 | GST-Vif_(HXB2) (natural protein) not shown | 90

Reference: PMC3585047 (The Journal of Biological Chemistry, 2013)
